Columns and labels:
[1] = target: T1, Purified EGFR (R&D Systems, Minneapolis, Minn.) (Homo sapiens (Human), UniProt P00533 25-645); assay: EGF-EGFR binding assay
T1 construct: Bought protein coated on an ELISA plate; also called immobilized EGFR; EGF receptors
Protocol: (§1) Purified EGFR (R&D Systems, Minneapolis, Minn.) was diluted in coating buffer (0.2 M sodium carbonate/bicarbonate pH 9.4, 0.5 1 g/mL) and immobilized on an ELISA plate by incubation at 4° C. overnight. […] The peroxidase reaction was stopped 30 min after the addition of 0.5 M H₂SO₄ ([…]/well), and the absorbance was measured at 450 nm with a multichannel microtiter plate reader.

[2] = target: T1, Purified EGFR (R&D Systems, …); assay: ELISA, EGFR on the plate, his6-tagged ligand 0-50 nM, HRP anti-his6 detection
Protocol: as §1

B1: mGM-CSF-hEGF fusion protein of Example 1 (other)
chain: SPITVTRPWKHVEAIKEALNLLDDMPVTLNEEVEVVSNEFSFKKLTCVQTRLKIFEQGLRGNFTKLKGALNMTASYYQTYCPPTPETDCETQVTTYADFIDSLKTFLTDIPFECKKPGQKVPGVGVPGVGNSDSECPLSHDGYCLHDGVCMYIEALDKYACNCVVGYIGERCQYRDLKWWELRHHHHHH
notes: The assays call it his6-tagged; also called GM-CSF-EGF conjugate; GM-CSF-EGF fusion protein
- Kd [1]: ~10 nM
- Kd [2]: < 5 nM

Reference: patent US20200308241A1 (published 2020)
